This note sets out measurements from patent publication US20250051464A1 (IMMUNOME, published 2025).

B1: AB-009813 (antibody, mouse IgG2a, V domains shown)
VH: QVQLQQWGAGLLKPSETLSLTCAVYGGSFSDYYWSWIRQPPGKGLEWIGEVNHAGSINYNNYNPSLKSRVTISVDPSKNQFSLKLTSVTAADTAVYYCAKPLRPHCTNGVCYSGDAFDIWGQGTMVTVAS
VL: SYVLTQPPSVSVAPGQTARITCGGNNIGSKNVHWYQQKPGQAPVLVVYDDSDRPSGIPEQFSGSNSGNTATLTISRVEAGDEADYYCQVWDSSSDHLVFGGGTKLTVL
B2: AB-009816 (antibody, mouse IgG2a, V domains shown)
VH: QVQLQQWGAGLLKPSETLSLTCAVYGGSFSDYYWSWIRQPPGKGLEWIGEVNHRGSINYNNYNPSLKSRVTISVDASKNQFSLKLTSVTAADTAVYYCAKPLRPHCTNGVCYSGDAFDIWGQGTMVTVAS
VL: SYVLTQPPSVSVAPGQTARITCGGNNIGSKNVHWYQQKPGQAPVLVVYDDSDRPSGIPEQFSGSNSGNTATLTISRVEAGDEADYYCQVWDSSSDHLVFGGGTKLTVL
B3: AB-009812 (antibody, mouse IgG2a, V domains shown)
VH: QVQLQQWGAGLLKPSETLSLTCAVYGGSFSDYYWSWIRQPPGKGLEWIGEVNHSGSINYNNYNPSLKSRVTISVDPSKNQFSLKLTSVTAADTAVYYCAKPLRPHCTNGVCYSGDAFDIWGQGTMVTVAS
VL: SYVLTQPPSVSVAPGQTARITCGGNNIGSKNVHWYQQKPGQAPVLVVYDDSDRPSGIPEQFSGSNSGNTATLTISRVEAGDEADYYCQVWDSSSDHLVFGGGTKLTVL
B4: AB-009814 (antibody, mouse IgG2a, V domains shown)
VH: QVQLQQWGAGLLKPSETLSLTCAVYGGSFSDYYWSWIRQPPGKGLEWIGEVNHRGSINYNPSLKSRVTISVDPSKNQFSLKLTSVTAADTAVYYCAKPLRPHCTNGVCYSGDAFDIWGQGTMVTVAS
VL: SYVLTQPPSVSVAPGQTARITCGGNNIGSKNVHWYQQKPGQAPVLVVYDDSDRPSGIPEQFSGSNSGNTATLTISRVEAGDEADYYCQVWDSSSDHLVFGGGTKLTVL
B5: AB-009815 (antibody, mouse IgG2a, V domains shown)
VH: QVQLQQWGAGLLKPSETLSLTCAVYGGSFSDYYWSWIRQPPGKGLEWIGEVNHRGSINYNNYNPSLKSRVTISVDTSKNQFSLKLTSVTAADTAVYYCAKPLRPHCTNGVCYSGDAFDIWGQGTMVTVAS
VL: SYVLTQPPSVSVAPGQTARITCGGNNIGSKNVHWYQQKPGQAPVLVVYDDSDRPSGIPEQFSGSNSGNTATLTISRVEAGDEADYYCQVWDSSSDHLVFGGGTKLTVL
B6: AB-009808 (antibody, mouse IgG2a, V domains shown)
VH: QVQLQQWGAGLLKPSETLSLTCAVYGGSFSDYYWSWIRQPPGKGLEWIGEINHSGSTNYNPSLKSRVTISVDPSKNQFSLKLTSVTAADTAVYYCAKPFRPHCTNGVCYSGDAFDIWGQGTMVTVSS
VL: SYVLTQPPSVSVAPGQTARITCGGNNIGSKNVHWYQQKPGQAPVLVVYDDSDRPSGIPEQFSGSNSGNTATLTISRVEAGDEADYYCQVWDSSSDHLVFGGGTKLTVL
B7: AB-009805 (antibody, V domains shown)
VH: QVQLQQWGAGLLKPSETLSLTCAVYGGSLSDYHWSWIRQPPGKGLEWIGEINHSGSTNYNPSLKSRVTISVDTSKNQFSLKLSSVSAADTAVYYCAKPFRPHCTNGVCHSGDAFDIWGQGTMATVSS
VL: SYVLTQPPSVSVAPGQTARITCGGNNIGSKNVHWYQQKPGQAPVLVVYDDSDRPSGIPEQFSGSNSGNTATLTISRVEAGDEADYYCQVWDSSSDHLVFGGGTKLTVL
B8: AB-009807 (antibody, mouse IgG2a, V domains shown)
VH: QVQLQQWGAGLLKPSETLSLTCAVYGGSFNDYYWSWIRQPPGKGLEWIGEVNHSGSTSYNPSLKSRVTISVDTSKNQFSLKLSSVTAADTAVYYCAKPFRPHCTNGVCYSGDAFDIWGQGTMVTVSS
VL: SYVLTQPPSVSVAPGQTARITCGGNNIGSKNVHWYQQKPGQAPALVVYDDSDRPSGIPEQFSGSNSGNTATLTISRVEAGDEADYYCQVWDSSSDHLVFGGGTKLTVL
B9: AB-008873 (mouse IgG2a format) (antibody, V domains shown)
VH: QVQLQQWGAGLLKPSETLSLTCAVYGGSFSDYYWSWIRQPPGKGLEWIGEVNHRGSINYNNYNPSLKSRVTISVDPSKNQFSLKLTSVTAADTAVYYCAKPLRPHCTNGVCYSGDAFDIWGQGTMVTVAS
VL: SYVLTQPPSVSVAPGQTARITCGGNNIGSKNVHWYQQKPGQAPVLVVYDDSDRPSGIPEQFSGSNSGNTATLTISRVEAGDEADYYCQVWDSSSDHLVFGGGTKLTVLG
B10: AB-010363 (antibody, V domains shown)
VH: QVQLQQWGAGLLKPSETLSLTCAVYGGSFSGYYWSWIRQPPGKGLEWIGEINHRGSINYNNYNPSLKSRVTISVDTSKNQFSLKLSSVTAADTAVYYCAKPLRPHCTNGVCYSGDAFDIWGQGTMVTVAS
VL: SYVLTQPPSVSVAPGQTARITCGGNNIGSKNVHWYQQKPGQAPVLVVYDDSDRPSGIPERFSGSNSGNTATLTISRVEAGDEADYYCQVWDSSSDHVVFGGGTKLTVL
notes: Tested in mIgG2a format
B11: AB-010361 (antibody, mouse IgG2a, V domains shown)
VH: QVQLQQWGAGLLKPSETLSLTCAVYGGSFSGYYWSWIRQPPGKGLEWIGEINHRGSINYNNYNPSLKSRVTISVDTSKNQFSLKLSSVTAADTAVYYCAKPLRPHCTNGVCYSGDAFDIWGQGTMVTVAS
VL: SYVLTQPPSVSVAPGQTARITCGGNNIGSKNVHWYQQKPGQAPVLVVYDDSDRPSGIPEQFSGSNSGNTATLTISRVEAGDEADYYCQVWDSSSDHVVFGGGTKLTVL
notes: Tested with mouse IgG2a constant regions (mIgG2a format)

T2 sequence (P29317 437-534 limits assumed): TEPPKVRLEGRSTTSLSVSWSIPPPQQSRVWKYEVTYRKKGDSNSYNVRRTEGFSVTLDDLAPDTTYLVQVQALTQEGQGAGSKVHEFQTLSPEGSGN

For the first assay, the target named is T1, human EphA2 (ephrin receptor A2), on cells (human, UniProt P29317 24-976).
T1 construct: Used for HEK293 transfectants, A549 and other human tumor cell lines
T1 sequence (P29317 24-976 limits assumed): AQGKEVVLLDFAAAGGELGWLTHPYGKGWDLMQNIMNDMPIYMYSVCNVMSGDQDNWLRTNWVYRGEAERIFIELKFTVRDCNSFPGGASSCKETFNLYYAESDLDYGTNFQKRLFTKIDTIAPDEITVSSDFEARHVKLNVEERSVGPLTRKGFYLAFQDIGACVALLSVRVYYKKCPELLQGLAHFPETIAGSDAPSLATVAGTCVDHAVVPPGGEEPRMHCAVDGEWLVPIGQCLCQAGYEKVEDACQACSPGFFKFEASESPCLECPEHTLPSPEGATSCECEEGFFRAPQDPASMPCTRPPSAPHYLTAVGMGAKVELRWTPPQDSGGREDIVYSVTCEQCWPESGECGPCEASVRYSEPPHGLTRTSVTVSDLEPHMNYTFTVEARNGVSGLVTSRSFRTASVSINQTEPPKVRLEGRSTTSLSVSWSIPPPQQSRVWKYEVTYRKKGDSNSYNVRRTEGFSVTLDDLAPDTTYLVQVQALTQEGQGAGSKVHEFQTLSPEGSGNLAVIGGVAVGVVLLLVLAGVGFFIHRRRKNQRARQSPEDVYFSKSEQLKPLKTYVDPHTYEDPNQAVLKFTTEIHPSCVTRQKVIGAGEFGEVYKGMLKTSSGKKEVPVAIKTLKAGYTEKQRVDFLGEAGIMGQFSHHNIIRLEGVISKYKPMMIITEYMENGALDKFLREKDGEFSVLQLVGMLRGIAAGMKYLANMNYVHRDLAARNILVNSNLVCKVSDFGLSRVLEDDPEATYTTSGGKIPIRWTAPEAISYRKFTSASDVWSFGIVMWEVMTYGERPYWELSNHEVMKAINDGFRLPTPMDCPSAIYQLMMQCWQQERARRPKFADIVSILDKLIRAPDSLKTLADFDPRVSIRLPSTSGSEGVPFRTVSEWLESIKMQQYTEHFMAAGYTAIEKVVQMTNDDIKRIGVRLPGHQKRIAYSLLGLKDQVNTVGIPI
Kind of assay: flow cytometry on A549 cells. Here is the method: (§1) Surface binding of the antibodies to in vitro grown cell lines was assessed by flow cytometry. Tumor cells were detached from their culture plate using Versene and counted. Cells were staining in BSA-containing buffer with primary antibody for 30 minutes at 4° C. with shaking. Following, cells were washed and stained with secondary PE-labeled antibody for 30 minutes at 4° C. with shaking. Before analysis on an Intellicyt iQue3 scanner, cells were counterstained with DAPI. MedFI values from live, single cells was expressed as fold over isotype control.
The term EC50 denotes the concentration that produces a half-maximal response. Read a high EC50 as lower potency in that assay. Consider B1, for which the “Delta (flow)” value was 578000 and the EC50 was 6.8 nM.
B2: the “Delta (flow)” value was 670000 and the response was half-maximal at 5.5 nM (EC50).
The corresponding values for B3 are 568000 and 9.6 nM.
For B4, the “Delta (flow)” value was 407000 and it took 11.5 nM to reach a half-maximal effect (EC50).
With B5, the “Delta (flow)” value came to 745000 and the EC50 came out at 5.5 nM.

In a further assay the target is T1, human EphA2 (ephrin receptor A2), on …. Kind of assay: flow cytometry binding on A549 cells. As to the method: as §1
(In general: In flow cytometry, cells or beads pass a laser one at a time.)
B6: the “Flow Delta activity (MedFI)” value came to 29500 MedFI.
Still for that read-out and setting: under B7 stands 75100 MedFI; under B8, 12700 MedFI.

A further assay concerns the target T2, C-terminally His-tagged hEphA2-FN2 (Thr437-Asn534+His tag) (human, UniProt P29317 437-534).
T2 construct: SPR analyte; also called FN2 domain of hEphA2
The experiment in a line: SPR Biacore T200, 25 C, mIgG2a captured by anti-mouse Fc, FN2-His as analyte, steady-state fit, monovalent. Here is the method: Binding of antibodies to the FN2 domain of hEphA2 was measured using the Biacore® T200 SPR system at 25° C. using HBS-EP+ buffer (0.01 M HEPES pH 7.4, 0.15 M NaCl, 3 mM EDTA, 0.005% v/v Surfactant P20). Antibodies in mIgG2a format were captured at levels between 475-715 RU via an anti-mouse Fc antibody immobilized to a CM5 chip. Binding was assessed using a titration of C-terminally His-tagged hEphA2-FN2 (Thr437-Asn534+His tag) associated for 30 s or 75 s at 30 uL/min. Data was double-reference subtracted using both a surface without captured antibody and from injections of HBS-EP+ buffer. The equilibrium response was measured at 4 seconds before the end of association with a window of 5 seconds and fit using the Biacore T200 Evaluation Software 3.1 with the Steady State Affinity Model.
Background: In SPR one partner is held on a chip, and binding of the other changes the refractive index at the surface.
In general, Kd refers to the constant that tells how readily two partners part at equilibrium. Read a low Kd as a tighter complex. In turn, B9 showed a Kd of 2260 nM.
Turning to B10, the affinity, expressed as Kd, was 1310 nM.
On the same count and under the same terms, the figure for B11 is 1110 nM.
